Measured values published in US20250059271A1 (BARRELMAN BIOSCIENCES, published 2025).
Changes are numbered by the printed parent chain. One block for each binder: values may come before it.

Target: T1, dProgastrin-SUMO protein (dog, UniProt P01353 22-104)
T1 construct: Unknown whether the listing entry 103 holds the tag; also called dProg-Sumo protein; dog progastrin His-SUMO protein; not shown: N-terminal His-SUMO tag
T1 sequence: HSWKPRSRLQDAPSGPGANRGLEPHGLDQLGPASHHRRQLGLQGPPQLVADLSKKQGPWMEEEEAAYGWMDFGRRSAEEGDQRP
Assay: ELISA; supernatant 1:2000 on 2 ug/ml dProgastrin-Sumo
Method: Deep well ELISA reading of 46 different monoclonal antibodies against 2 μg/ml dProgastrin-Sumo protein antigen versus 2 μg/ml anti rabbit antibodies. Supernatants containing the antibodies were diluted at 1:2000. […] Monoclonal antibodies with strong specificities against the dProgastrin C terminus at low concentrations include the D6 mAb, A3 mAb, and F4 mAb, among others.

OD: 2.02 OD
B1: dProg-2-D6 mAb (antibody, V domains shown)
VH: QSVKESEGGLFKPTEPLTLTCTVSGFSLSSDNMGWVRQTPGKQLEWIGWIGSSGSAYYARWAKSRSTITRNTNENTVTLKMTSLTAADTATYFCARSGWGSFDIWGPGTLVTVSS
VL: AQVLTQTPSPVSAAVGSTVTISCQSSQSVYSNNRLAWFQQKPGQPPKLLIYLASTLASGVPSRFKGSGSGTQFTLTISEVQCDDAATYYCQGYYSGYIFGFGGGTEVVVKG
notes: Recombinant rabbit monoclonal antibody; also called D6 mAb (C terminus); dprogastrin-2_D6

OD: 2.19 OD
B2: dProg-2-A3 mAb (antibody, V domains shown)
VH: QSVEESRGGLFKPTEPLTLTCTASGFTISSYHMGWVRQTPGKQLEWIGWIGSSGATYYASWATSRSTITRNTNDNTVTLKMTSLTAADTATYFCARSGWGSFDIWGPGALVTVSS
VL: B1 VL with S9A, P10S, S17G, S22N, S31N, N33D, S78G, G92S, S95N
notes: Recombinant rabbit monoclonal antibody; same entries as dProg-2-F4; Biotinylated when used for detection; also called dprogastrin-2_A3 mAb

OD: 1.99 OD
B3: dProg-2-F4 mAb (antibody, V domains shown)
VH: B2 VH
VL: B1 VL with S9A, P10S, S17G, S22N, S31N, N33D, S78G, G92S, S95N
notes: Recombinant rabbit monoclonal antibody; same entries as dProg-2-A3; also called dprogastrin-2_F4
